One assay has as its target CAR on CHO-CAR cells (UniProt P78310). Description: flow cytometry on cells; CHO-CAR cells with serial dilutions of knob protein (0.0001-100 ug/10^5 cells) for 1 h on ice, washed, then stained for CAR with anti-CAR (RmcB) and a labelled secondary antibody; IC50 by non-linear regression; apparent.
In assay [1] the target is Human desmoglein-2 Fc chimera protein (DSG2) (human) (UniProt Q14126). Description: SPR; BIAcore 3000; DSG2-Fc, CAR-Fc and CD46-His (approximately 500 RU) coupled to a CM5 chip; knob protein injected (178 uM, 5x 1:3 dilutions; single-cycle kinetics from 200 uM); 30 uL/min, PBS, 25 °C; equilibrium KD assuming 1:1 Langmuir binding. Background: In SPR one partner is held on a chip, and binding of the other changes the refractive index at the surface.
Chain of Human desmoglein-2 Fc chimera protein (DSG2) (human) (Q14126 50-609, change not shown): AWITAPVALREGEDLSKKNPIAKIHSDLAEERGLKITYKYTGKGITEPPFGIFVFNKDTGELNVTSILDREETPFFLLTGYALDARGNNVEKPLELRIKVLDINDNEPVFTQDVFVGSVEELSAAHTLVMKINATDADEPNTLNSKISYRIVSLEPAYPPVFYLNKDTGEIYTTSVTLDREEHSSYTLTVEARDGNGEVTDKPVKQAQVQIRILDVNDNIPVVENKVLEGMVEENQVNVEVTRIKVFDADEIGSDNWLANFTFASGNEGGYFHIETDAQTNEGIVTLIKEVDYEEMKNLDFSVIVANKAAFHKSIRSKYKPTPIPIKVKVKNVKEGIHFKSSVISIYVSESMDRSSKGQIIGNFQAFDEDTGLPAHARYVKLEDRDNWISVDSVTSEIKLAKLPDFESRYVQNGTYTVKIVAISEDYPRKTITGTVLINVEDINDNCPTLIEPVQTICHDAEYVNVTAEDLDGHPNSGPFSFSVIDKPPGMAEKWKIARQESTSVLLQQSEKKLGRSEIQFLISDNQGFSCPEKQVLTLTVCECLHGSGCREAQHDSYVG

Assay [2] concerns the target human CXADR Fc chimera protein (CAR) (human) (UniProt P78310). The description is as above.
Assay [3] has as its target human CD46 protein (His tag) (human) (UniProt P15529). The description is as above.

Chain of CAR on CHO-CAR cells (P78310 20-365): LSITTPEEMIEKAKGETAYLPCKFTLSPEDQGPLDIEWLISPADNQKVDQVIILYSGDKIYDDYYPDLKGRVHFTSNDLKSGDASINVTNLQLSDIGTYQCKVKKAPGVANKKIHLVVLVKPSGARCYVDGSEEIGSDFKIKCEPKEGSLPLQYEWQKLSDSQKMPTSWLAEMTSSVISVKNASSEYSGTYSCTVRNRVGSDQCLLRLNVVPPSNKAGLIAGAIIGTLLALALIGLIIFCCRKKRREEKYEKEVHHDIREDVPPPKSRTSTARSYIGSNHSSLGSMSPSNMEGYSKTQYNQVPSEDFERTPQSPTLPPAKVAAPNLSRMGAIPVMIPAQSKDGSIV
Chain of human CD46 protein (His tag) (human) (P15529 35-343): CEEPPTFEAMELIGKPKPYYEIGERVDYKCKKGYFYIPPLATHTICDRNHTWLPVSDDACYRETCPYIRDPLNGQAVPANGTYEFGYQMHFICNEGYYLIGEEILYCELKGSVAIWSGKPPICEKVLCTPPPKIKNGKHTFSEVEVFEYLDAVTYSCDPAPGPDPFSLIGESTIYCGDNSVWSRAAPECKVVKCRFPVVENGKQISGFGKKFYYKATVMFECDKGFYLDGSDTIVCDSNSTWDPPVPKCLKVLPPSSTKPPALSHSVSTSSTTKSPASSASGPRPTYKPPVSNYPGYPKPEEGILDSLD
Chain of human CXADR Fc chimera protein (CAR) (human) (P78310 20-237, change not shown): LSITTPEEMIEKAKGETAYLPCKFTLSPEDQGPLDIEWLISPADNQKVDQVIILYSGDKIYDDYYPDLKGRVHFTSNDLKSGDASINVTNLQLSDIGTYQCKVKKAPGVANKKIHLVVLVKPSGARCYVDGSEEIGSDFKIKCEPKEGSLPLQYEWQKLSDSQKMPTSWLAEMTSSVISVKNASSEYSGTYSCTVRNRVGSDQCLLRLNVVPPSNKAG

What is called Kd is the concentration at which binding is half-saturated. For the substance “HAdV-D10 fiber knob protein (domain or fragment)”, the fold lower apparent affinity than HAdV-C5K (by IC50) with CAR on CHO-CAR cells worked out at 16.5 fold. Also, the dissociation constant Kd in assay [1] was determined as 125 µM; in assay [2], 0.44 µM; in assay [3], 20 µM.
